Measurements published in the supplement of paper PMC10567573.

B1: FAM9B (parent)
chain: EDLTAKRKRMKMDKTCSKTKNKSK
B2: GMCL1 (parent)
chain: FCYCAGSHKRKRSSGSFCYCHPDS

Variants of: B1
Assay: protein stability index of a GFP-peptide fusion (GPS, HEK-293T) (PSI 1-6); higher = more stable
Details: c terminus: a fixed tail appended
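Also: lentivirally expressed fusions sorted by FACS into six bins by GFP to DsRed ratio, PSI derived from sequencing read proportions per bin multiplied by bin number.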

Protein stability index: each site, then its substitutions
K24: R 5.06; A 5.14; Q 4.59; L 4.01; D 4.97; E 5.11; S 4.43; C 5.2; W 3.98; N 5; V 4.62; T 5.15; H 4.71; F 4.83; G 4.19; M 4.96; P 4.93; I 4.68
K20: G 5.06; P 4.75; T 5.25; S 4.84; Y 4.43; W 4.47; N 4.87; C 4.57; R 4.76; H 5.24; A 4.94; F 4.46; M 4.57; Q 5.15; I 4.75; L 4.96; V 4.32; D 4.9; E 5.07
S23: W 4.47; Q 5.1; M 3.93; F 4.6; E 5.52; Y 5.07; L 4.76; P 5.54; D 5.36; N 5.12; C 5.32; A 5.7; R 5.24; I 4.78; V 5.27; T 5.31; G 5.07; H 4.53; K 5.06
T19: E 5.74; S 5.62; G 4.94; I 4.9; Y 4.75; P 4.89; D 4.97; N 5.1; Q 5.08; R 5.26; K 5.17; W 4.58; F 5.29; C 4.99; A 5.16; L 4.94; M 5.15; H 5.02; V 4.7
N21: I 4.7; L 4.93; A 5.23; S 5.46; T 5.42; G 4.78; W 4.4; Q 5.51; H 5; F 4.57; E 5.44; P 4.94; R 5.25; K 5.33; Y 4.77; V 4.11; C 4.95; D 5.17; M 4.81
S17: M 5.39; F 4.24; E 5.73; Q 5.34; Y 5.08; H 4.8; T 5.32; K 4.55; G 5.02; W 5.02; N 5.85; V 4.88; A 4.7; P 4.93; I 5.21; C 5.05
K22: R 5.31; Q 4.74; F 4.63; N 4.83; M 4.47; W 4.19; D 5.24; A 5.4; E 4.96; Y 5.07; C 4.92; H 5; I 3.59; V 4.39; L 4.39; G 4.78; T 5.11; P 5.58
K18: Q 5.57; Y 4.59; H 5.3; G 4.83; E 5.6; T 4.89; N 5.18; R 4.81; P 5.87; S 4.78; C 4.96; D 5.07; F 3.92; M 4.67; I 4.9; A 4.86; L 4.75; W 4.35; V 4.75
C16: L 5.05; K 4.96; I 4.71; S 5.33; T 5.63; H 4.66; G 4.11; F 4.93; Y 5.54; P 5.57; N 5.46; R 5.47; W 5.08; Q 5.45; D 5.67; V 5.53; E 5.47; A 4.69; M 5.27

Variants of: B2
Assay: as above
Details: c terminus: a fixed tail appended

Protein stability index, by site and new letter:
R10: M 1.9; N 2.24; W 1.92; H 1.68; S 1.82; L 1.99; G 2.27; I 2.32
F1: Q 3.82; A 4.19; T 3.34; P 4.21; D 4.2
F17: D 2.84; W 1.9; N 2.06
P22: G 2.44; A 2.64; H 2.29; M 1.85
G15: V 2.6; D 2.25; F 1.8; M 1.21; T 1.96; S 2.17; Y 2.56; W 2.26
K11: W 2.03; F 1.68; L 2.41; M 2.29; I 2.92; Y 2.95; D 2.45
Y3: A 2.37; S 2.25; G 1.7; N 2.67; D 2.2; L 2.96; Q 2.89; M 2.02; C 1.75
S24: L 1.91; Q 2.9; P 1.88; V 2.12; F 1.61; W 1.38; Y 1.84; M 1.78
S13: T 2.11; D 2.74; E 2.02; P 2.67; L 2.5; K 1.96
C2: S 2.25; L 1.79; R 3.48; W 1.79; K 2.06; T 2.22; Q 3.31; E 2.05
C4: V 2.27; E 2.01; A 1.29; P 1.53; R 1.36; K 2.07; F 1.65
C18: A 2.74; G 2.18; Y 1.14; L 2.4; E 2.74; P 2.1; M 2.11
S7: W 1.9; F 2.54; H 1.59; T 2.98; Q 1.77; A 2.15; Y 1.59
S16: L 1.26; W 2.06; F 2.41; K 3.24; D 1.88; M 2.44; V 2.16
A5: D 2.38; G 1.5; I 3.03; Q 1.94; T 1.38
Y19: T 3.6; K 3.4; H 2.67; P 3.37; V 3.03; Q 3.03; A 3.72; W 1.28
K9: E 2.14; L 1.99; P 1.52; F 2.13; G 1.57; C 2; T 1.29; H 1.86; A 1.63; V 2.57; Y 2.8; Q 2.01
G6: Q 2; M 2.48
S14: H 2.79; V 1.89; E 1.87; N 2.37; T 1.46; K 1.61; C 1.86; Q 1.89; R 2.02
R12: N 2.01; M 1.54; H 1.96; W 2.9; P 2.44; I 1.75; Q 2.33; Y 2.56
D23: Q 2.34; E 2.13; P 2.86; Y 2.06; F 2.06; H 1.88; A 1.35; G 2.27
C20: K 1.58; T 1.98; P 1.94; G 1.99; N 1.99; D 2.73
H8: Y 2.57; R 1.9; D 1.67; E 2.1; T 1.67; P 1.94; M 1.66; F 1.97; S 2.33; G 2.88; I 1.48; W 2.59
H21: L 2.88; P 2.21; M 3.12; V 2.51
